IntAct's records for PubMed 25764370

B1: Structural maintenance of chromosomes protein 5 (Saccharomyces cerevisiae), Q08204 (parent)
chain: MTSLIDLGRYVERTHHGEDTEPRSKRVKIAKPDLSSFQPGSIIKIRLQDFVTYTLTEFNLSPSLNMIIGPNGSGKSTFVCAVCLGLAGKPEYIGRSKKVEDFIKNGQDVSKIEITLKNSPNVTDIEYIDARDETIKITRIITRSKRRSDYLINDYQVSESVVKTLVAQLNIQLDNLCQFLSQERVEEFARLKSVKLLVETIRSIDASLLDVLDELRELQGNEQSLQKDLDFKKAKIVHLRQESDKLRKSVESLRDFQNKKGEIELHSQLLPYVKVKDHKEKLNIYKEEYERAKANLRAILKDKKPFANTKKTLENQVEELTEKCSLKTDEFLKAKEKINEIFEKLNTIRDEVIKKKNQNEYYRGRTKKLQATIISTKEDFLRSQEILAQTHLPEKSVFEDIDIKRKEIINKEGEIRDLISEIDAKANAINHEMRSIQRQAESKTKSLTTTDKIGILNQDQDLKEVRDAVLMVREHPEMKDKILEPPIMTVSAINAQFAAYLAQCVDYNTSKALTVVDSDSYKLFANPILDKFKVNLRELSSADTTPPVPAETVRDLGFEGYLSDFITGDKRVMKMLCQTSKIHTIPVSRRELTPAQIKKLITPRPNGKILFKRIIHGNRLVDIKQSAYGSKQVFPTDVSIKQTNFYQGSIMSNEQKIRIENEIINLKNEYNDRKSTLDALSNQKSGYRHELSELASKNDDINREAHQLNEIRKKYTMRKSTIETLREKLDQLKREARKDVSQKIKDIDDQIQQLLLKQRHLLSKMASSMKSLKNCQKELISTQILQFEAQNMDVSMNDVIGFFNEREADLKSQYEDKKKFVKEMRDTPEFQSWMREIRSYDQDTKEKLNKVAEKYEEEGNFNLSFVQDVLDKLESEIAMVNHDESAVTILDQVTAELRELEHTVPQQSKDLETIKAKLKEDHAVLEPKLDDIVSKISARFARLFNNVGSAGAVRLEKPKDYAEWKIEIMVKFRDNAPLKKLDSHTQSGGERAVSTVLYMIALQEFTSAPFRVVDEINQGMDSRNERIVHKAMVENACAENTSQYFLITPKLLTGLHYHEKMRIHCVMAGSWIPNPSEDPKMIHFGETSNYSFD
partner: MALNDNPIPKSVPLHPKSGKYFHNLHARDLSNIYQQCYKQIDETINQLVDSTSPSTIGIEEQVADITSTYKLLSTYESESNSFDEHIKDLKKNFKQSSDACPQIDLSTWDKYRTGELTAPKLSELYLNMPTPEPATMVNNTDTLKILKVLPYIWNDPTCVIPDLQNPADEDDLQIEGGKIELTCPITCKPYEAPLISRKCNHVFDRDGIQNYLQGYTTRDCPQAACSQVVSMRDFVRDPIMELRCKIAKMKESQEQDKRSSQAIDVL
B2: Structural maintenance of chromosomes protein 5 (Saccharomyces cerevisiae), Q08204 (parent)
chain: B1 chain

Variants of: B1
Settings: with nse2_yeast MMS21, P38632

Variant | effect of a mutation on the interaction
I780R;I784R;F787A;N791A | disrupting interaction strength
Q752A;L755A;L762A | decreasing interaction strength

Variants of: B2
Settings: with smt3_yeast SMT3, Q12306
smt3_yeast SMT3, Q12306, sequence (Q12306 whole entry): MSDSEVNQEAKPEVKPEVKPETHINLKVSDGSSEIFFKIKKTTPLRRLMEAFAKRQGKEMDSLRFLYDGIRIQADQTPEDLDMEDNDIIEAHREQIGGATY

Variant | effect of a mutation on the interaction
I780R;I784R;F787A;N791A | disrupting interaction strength
Q752A;L755A;L762A | decreasing interaction strength
M769A;K773A | decreasing interaction strength
